Data on three substances can be found in paper PMC7907450.

For orientation: Kd means a measure of binding affinity in units of concentration. A low value points to higher affinity.

Series [1] deals with 30S ribosomal subunit initiation complex with IF1, IF2, IF3 and elongator BPY-Phe-tRNAPhe. Put plainly: MST. The conditions noted are these: 60 uM amicoumacin A, MST: buffer TAKM7 (7 mM Mg2+; full composition not in material), 30 min at 37 C, A-site peptidyl-tRNA: buffer TAKM with 7-20 mM Mg2+, nitrocellulose ….
Series [2] concerns 30S ribosomal subunit initiation complex with IF1, IF2, IF3 and BPY-Met-tRNAfMet. The series can be described thus: MST. The conditions noted are these: MST: buffer TAKM7 (7 mM Mg2+; full composition not in material), 30 min at 37 C, A-site peptidyl-tRNA: buffer TAKM with 7-20 mM Mg2+, nitrocellulose ….
In series [3] the test system is 30S ribosomal subunit initiation complex without IF3 (IF1, IF2, BPY-Met-tRNAfMet). The series can be described thus: MST. The note with it: MST: buffer TAKM7 (7 mM Mg2+; full composition not in material), 30 min at 37 C, A-site peptidyl-tRNA: buffer TAKM with 7-20 mM Mg2+, nitrocellulose ….
In series [4] the test system is 70S ribosome pretranslocation complex, deacylated tRNAfMet in P site, A site. The series can be described thus: nitrocellulose filter binding, koff/kon. The conditions noted are these: 7 mM Mg2+, aminoacylated with fMet-Val dipeptide, MST: buffer TAKM7 (7 mM Mg2+; full composition not in material), 30 min at 37 C, A-site peptidyl-tRNA: buffer TAKM with 7-20 mM Mg2+.

Turning to model mRNA AUG (Met-Phe), the Kd in series [1] turned out to be 940 nM; in series [2] (30 uM edeine), 568 nM; in series [2] (60 uM amicoumacin A) it was 169 nM; in series [2] (60 uM kasugamycin), 59 nM; in series [2] (no antibiotic), 18 nM; in series [3] (no IF3, amicoumacin A), 77 nM. In series [3] (no IF3, no antibiotic), the Kd came to 1280 nM.

On to model mRNA UUC start codon, for which the Kd in series [2] (60 uM amicoumacin A) is 584 nM; in series [3] (no IF3, amicoumacin A), 587 nM; in series [3] (no IF3, no antibiotic), 1270 nM.

Turning to fMet-[14C]Val-tRNAVal, the Kd in series [4] (30 uM amicoumacin A) is 461 nM; in series [4] (no antibiotic), 688 nM.
